Laboratory results published in publication PMC5261807 (2017).
Non-standard residues stand in square brackets, D forms with d. Primed or numbered codes have the meaning given here. No end group written: not given here. Me2s″ = symmetric dimethylarginine (Rme2s); Arg(Me2a) = CN(C)C(=N)NCCC[C@H](N)C(=O)O; Lys(Me3) = C[N+](C)(C)CCCC[C@H](N)C(=O)O; Arg(Me2s) = CN=C(NC)NCCC[C@H](N)C(=O)O; pT = C[C@@H](OP(=O)(O)O)[C@H](N)C(=O)O; Lys(Me2) = CN(C)CCCC[C@H](N)C(=O)O; pS = N[C@@H](COP(=O)(O)O)C(=O)O; Lys(Me) = CNCCCC[C@H](N)C(=O)O

T1: Bdf1 bromodomain 2 (GST-tagged, WT) (Saccharomyces cerevisiae (strain ATCC …, UniProt P35817))
T1 chain: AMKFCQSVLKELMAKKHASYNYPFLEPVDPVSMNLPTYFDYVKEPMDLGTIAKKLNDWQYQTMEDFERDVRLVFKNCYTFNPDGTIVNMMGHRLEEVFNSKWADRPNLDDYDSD

T2: Bdf1 bromodomain 1 (GST-tagged, WT) (Saccharomyces cerevisiae (strain ATCC …, UniProt P35817))
T2 chain: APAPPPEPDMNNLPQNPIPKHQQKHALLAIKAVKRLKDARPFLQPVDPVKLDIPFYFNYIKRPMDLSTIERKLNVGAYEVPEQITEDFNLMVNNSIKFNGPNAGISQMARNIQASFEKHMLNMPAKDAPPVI


Target: T1, Bdf1 bromodomain 2 (GST-tagged, WT)
Assay: histone peptide array probed with recombinant GST-bromodomain, signal normalised to myc peptide control

Binder | binding score
ARTKQTARKSTGGKAPRKQ (A R T Kme3 Q T A Rme2a Kme3 S T G G K A P R K Q) | 0
A[Arg(Me2a)]T[Lys(Me2)]QTA[Arg(Me2a)][Lys(Me2)]STGGKAPRKQ | 0
ARTKQTARKSTGGKAPRKQ (A Rme2a T Kme2 Q T A Rme2s Kme1 S T G G K A P R K Q) | 0
ARTKQTA[Arg(Me2a)][Lys(Me3)]S[pT]GGKAPRKQ | 0
ARTKQTARKSTGGKAPRKQ (A R T Kme2 Q T A Rme2a Kme3 S T G G K A P R K Q) | 0
ARTKQTARKSTGGKAPRKQ (A Rme2s T Kme2 Q T A Rme2a Kac S T G G K A P R K Q) | 0.0107
ARTKQTARKSTGGKAPRKQ (A Rme2s T Kme1 Q T A Rme2a Kac S T G G K A P R K Q) | 0.00462
ARTKQTARKSTGGKAPRKQ (A R T K Q T A R Kme3 S T G G Kac A P R K Q) | 0.0479
ARTK(Ac)QTA[Arg(Me2s)][Lys(Me)]STGGKAPRKQ | 0.00148
A[Arg(Me2a)][pT]K(Me)QTARKSTGGKAPRKQ | 0.00207
SGRGK(Ac)QGGK(Ac)ARAKAKSRSS | 0.141
A[Arg(Me2s)]T[Lys(Me3)]QTA[Arg(Me2a)][Lys(Me)]STGGKAPRKQ | 0
A[Arg(Me2a)]T[Lys(Me2)]QTA[Arg(Me2s)][Lys(Me3)]STGGKAPRKQ | 0
ARTKQTARKSTGGKAPRKQ (A R T K Q T A Rme2s K S T G G K A P R K Q) | 0
ARTKQTARKSTGGKAPRKQ (A Rme2s T Kac Q T A R Kme3 S T G G K A P R K Q) | 0
ARTKQTARKSTGGKAPRKQ (A Rme2a T Kme1 Q T A Rme2a K S T G G K A P R K Q) | 0.00443
A[Arg(Me2a)]TK(Ac)QTARK(Ac)STGGKAPRKQ | 0.0627
ARTKQTARKSTGGKAPRKQ (A Rme2a T Kme1 Q T A Rme2a Kme1 S T G G K A P R K Q) | 0
ARTKQTARKSTGGKAPRKQ (A R T K Q T A R Kme3 pS T G G K A P R K Q) | 0
A[Arg(Me2s)]T[Lys(Me)]QTA[Arg(Me2s)][Lys(Me2)]STGGKAPRKQ | 0
SGRGKQGGKARAK(Ac)AKSRSS | 0.0115
ARTKQTARKSTGGKAPRKQ (A Rme2s T Kac Q T A Rme2s K S T G G K A P R K Q) | 0.00876

The remaining lines, values ahead:

binding score | Binder
0.0271 | SGRGKGGKGLGKGGAKRHR (S G R G K G G K G L G Kac G G A K R H R)
0 | PRKQLATKAAR(Me2s″)K[pS]APATGG
0.081 | PRKQLATKAA[Arg(Me2s)]K(Ac)SAPATGG
0 | PRKQLATKAARK(Me)[pS]APATGG
0 | PRKQLATKAA[Arg(Me2s)][Lys(Me3)]SAPATGG
0 | SGRGKGGKGLGKGGAKRHR (S G Rme2s G K G G K G L G K G G A K R H R)
0.206 | SGRGKGGKGLGKGGAKRHR (pS G Rme2a G Kac G G Kac G L G K G G A K R H R)
0.0393 | PRKQLATKAA[Arg(Me2a)]K(Ac)SAPATGG
0 | PRKQLATKAAR[Lys(Me)]SAPATGG
0 | ARTKQTARKSTGGKAPRKQ (A R T K Q T A R Kac pS T G G K A P R K Q)
0.115 | ARTKQTARKSTGGKAPRKQ (A R T K Q T A R K pS T G G Kac A P R K Q)
0 | ARTKQTARKSTGGKAPRKQ (A R T Kme1 Q T A Rme2a Kme1 S T G G K A P R K Q)
0 | PRKQLATKAA[Arg(Me2s)][Lys(Me2)][pS]APATGG
0 | ARTKQTARKSTGGKAPRKQ (A R T Kme1 Q T A Rme2s Kme3 S T G G K A P R K Q)
0 | ARTKQTARKSTGGKAPRKQ (A R T K Q T A R K pS T G G K A P R K Q)
0 | ARTKQTARKSTGGKAPRKQ (A R T K Q T A Rme2a Kme2 S pT G G K A P R K Q)
0.00758 | ARTKQTARKSTGGKAPRKQ (A Rme2a T Kme3 Q T A R Kac S T G G K A P R K Q)
0.605 | SGRGKGGKGLGKGGAKRHR (S G Rme2s G Kac G G Kac G L G Kac G G A K R H R)

Target: T2, Bdf1 bromodomain 1 (GST-tagged, WT)
Assay: as above

Binder | binding score
ARTKQTARKSTGGKAPRKQ (A R T Kme3 Q T A Rme2a Kme3 S T G G K A P R K Q) | 0.00538
A[Arg(Me2a)]T[Lys(Me2)]QTA[Arg(Me2a)][Lys(Me2)]STGGKAPRKQ | 0.00126
ARTKQTARKSTGGKAPRKQ (A Rme2a T Kme2 Q T A Rme2s Kme1 S T G G K A P R K Q) | 0.0163
ARTKQTA[Arg(Me2a)][Lys(Me3)]S[pT]GGKAPRKQ | 0
ARTKQTARKSTGGKAPRKQ (A R T Kme2 Q T A Rme2a Kme3 S T G G K A P R K Q) | 0
ARTKQTARKSTGGKAPRKQ (A Rme2s T Kme2 Q T A Rme2a Kac S T G G K A P R K Q) | 0.0108
ARTKQTARKSTGGKAPRKQ (A Rme2s T Kme1 Q T A Rme2a Kac S T G G K A P R K Q) | 0.00628
ARTKQTARKSTGGKAPRKQ (A R T K Q T A R Kme3 S T G G Kac A P R K Q) | 0.0133
ARTK(Ac)QTA[Arg(Me2s)][Lys(Me)]STGGKAPRKQ | 0.0242
A[Arg(Me2a)][pT]K(Me)QTARKSTGGKAPRKQ | 0.00412
SGRGK(Ac)QGGK(Ac)ARAKAKSRSS | 0.0332
A[Arg(Me2s)]T[Lys(Me3)]QTA[Arg(Me2a)][Lys(Me)]STGGKAPRKQ | 0
A[Arg(Me2a)]T[Lys(Me2)]QTA[Arg(Me2s)][Lys(Me3)]STGGKAPRKQ | 0.0167
ARTKQTARKSTGGKAPRKQ (A R T K Q T A Rme2s K S T G G K A P R K Q) | 0.00305
ARTKQTARKSTGGKAPRKQ (A Rme2s T Kac Q T A R Kme3 S T G G K A P R K Q) | 0.00412
ARTKQTARKSTGGKAPRKQ (A Rme2a T Kme1 Q T A Rme2a K S T G G K A P R K Q) | 0.00341
A[Arg(Me2a)]TK(Ac)QTARK(Ac)STGGKAPRKQ | 0.0911
ARTKQTARKSTGGKAPRKQ (A Rme2a T Kme1 Q T A Rme2a Kme1 S T G G K A P R K Q) | 0
ARTKQTARKSTGGKAPRKQ (A R T K Q T A R Kme3 pS T G G K A P R K Q) | 0
A[Arg(Me2s)]T[Lys(Me)]QTA[Arg(Me2s)][Lys(Me2)]STGGKAPRKQ | 0.00197
SGRGKQGGKARAK(Ac)AKSRSS | 0.00932
ARTKQTARKSTGGKAPRKQ (A Rme2s T Kac Q T A Rme2s K S T G G K A P R K Q) | 0

Next, values leading:

binding score | Binder
0.00448 | SGRGKGGKGLGKGGAKRHR (S G R G K G G K G L G Kac G G A K R H R)
0 | PRKQLATKAAR(Me2s″)K[pS]APATGG
0.00843 | PRKQLATKAA[Arg(Me2s)]K(Ac)SAPATGG
0.0151 | PRKQLATKAARK(Me)[pS]APATGG
5.8e-17 | PRKQLATKAA[Arg(Me2s)][Lys(Me3)]SAPATGG
0.00646 | SGRGKGGKGLGKGGAKRHR (S G Rme2s G K G G K G L G K G G A K R H R)
0.0927 | SGRGKGGKGLGKGGAKRHR (pS G Rme2a G Kac G G Kac G L G K G G A K R H R)
0 | PRKQLATKAA[Arg(Me2a)]K(Ac)SAPATGG
0 | PRKQLATKAAR[Lys(Me)]SAPATGG
0 | ARTKQTARKSTGGKAPRKQ (A R T K Q T A R Kac pS T G G K A P R K Q)
0.0299 | ARTKQTARKSTGGKAPRKQ (A R T K Q T A R K pS T G G Kac A P R K Q)
0.0154 | ARTKQTARKSTGGKAPRKQ (A R T Kme1 Q T A Rme2a Kme1 S T G G K A P R K Q)
0.017 | PRKQLATKAA[Arg(Me2s)][Lys(Me2)][pS]APATGG
0 | ARTKQTARKSTGGKAPRKQ (A R T Kme1 Q T A Rme2s Kme3 S T G G K A P R K Q)
0 | ARTKQTARKSTGGKAPRKQ (A R T K Q T A R K pS T G G K A P R K Q)
0.00323 | ARTKQTARKSTGGKAPRKQ (A R T K Q T A Rme2a Kme2 S pT G G K A P R K Q)
0.00628 | ARTKQTARKSTGGKAPRKQ (A Rme2a T Kme3 Q T A R Kac S T G G K A P R K Q)
0.391 | SGRGKGGKGLGKGGAKRHR (S G Rme2s G Kac G G Kac G L G Kac G G A K R H R)
